The source of these data is patent US20040171019A1, “PIN1 peptidyl-prolyl isomerase polypeptides, their crystal structures, and use thereof for drug design” (Agouron Pharmaceuticals, Inc., priority 2002, published 2004).

For this assay, the system named is Suc-AEPF-pNA peptide substrate. The assay is described as follows: Peptidyl-prolyl isomerase activity of PIN1 polypeptides without inhibitor. It is filed as biochemical. The note with it: 0.033 nM enzyme, 100 μM Suc-AEPF-pNA. An excerpt: PIN1 is a phosphorylation dependent peptidyl-prolyl isomerase. Peptidyl-prolyl ismomerase activity for the peptides of the invention can be measured using a spectrophotometric assay based on the coupled chymotrypsin catalyzed, cis-trans conformation dependent cleavage of a para-nitroanaline-containing peptide substrate. This rotamase assay is described by Kofron et al. (Biochemistry 30, […] (1991)) and its application to PIN1 isomerase activity is described by Yaffe et al. (Science 278, 1957-1960 (1997)). Cleavage of the isomerized peptide releases para-nitroanaline, which can be monitored by an increase in absorbance at 390 nm. The PIN1 peptide substrate, succinyl-alanine-[…]-proline-phenylalanine-paranitroaniline (Suc-AEPF-pNA) (Bachem California, Inc., Torrence, Calif.) is kept in a predominantly cis conformation with an anhydrous TFE (trifluorethanol)/LiCl (lithium chloride) solvent mixture. […]
Peptidyl-prolyl isomerase reactions were carried out in 25 mM MOPS [3-(N-Morpholino)propanesufonic acid], pH 7.5, 0.5 mM TCEP [Tris(2-carboxyethyl)phosphine hydrochloride], 2% DMSO, 5 μl of a 25 mg/ml solution of Subtilisin Carlsberg Protease (Sigma), […], and 100 μM Suc-AEPF-pNA peptide substrate. […] The absorbance at 390 nm was monitored continuously until all substrate had been converted to the cleaved product. […]

B1: mutant PIN1 PPIase (K77Q/K82Q): mutant PIN1 PPIase polypeptide (SEQ ID NO:4) devoid of the WW domain, with K77Q and K82Q substitutions (protein)
chain: GSHMGKNGQGEPARVRCSHLLVKHSQSRRPSSWRQEQITRTQEEALELINGYIQKIKSGEEDFESLASQFSDCSSAKARGDLGAFSRGQMQKPFEDASFALRTGEMSGPVFTDSGIHIILRTE
In the case of B1, the rate turned out to be 0.2.
